Numbering of substitutions follows the chain as printed. Names and notes keep the numbering of the source.
Substrate: C[C@]12CCC(=O)C=C1CC[C@@H]1[C@@H]2CC[C@]2(C)C(=O)CC[C@@H]12
Experiment: cells, lysate or membranes
Conditions: substrate

B1: wild-type aromatase (Homo sapiens) (protein)
chain: MVLEMLNPIHYNITSIVPEAMPAATMPVLLLTGLFLLVWNYEGTSSIPGPGYCMGIGPLISHGRFLWMGIGSACNYYNRVYGEFMRVWISGEETLIISKSSSMFHIMKHNHYSSRFGSKLGLQCIGMHEKGIIFNNNPELWKTTRPFFMKALSGPGLVRMVTVCAESLKTHLDRLEEVTNESGYVDVLTLLRRVMLDTSNTLFLRIPLDESAIVVKIQGYFDAWQALLIKPDIFFKISWLYKKYEKSVKDLKDAIEVLIAEKRRRISTEEKLEECMDFATELILAEKRGDLTRENVNQCILEMLIAAPDTMSVSLFFMLFLIAKHPNVEEAIIKEIQTVIGERDIKIDDIQKLKVMENFIYESMRYQPVVDLVMRKALEDDVIDGYPVKKGTNIILNIGRMHRLEFFPKPNEFTLENFAKNVPYRYFQPFGFGPRGCAGKYIAMVMMKAILVTLLRRFHVKTLQGQCVESIQKIHDLSLHPDETKNMLEMIFTPRNSDRCLEH
Km (other: WT aromatase): 0.0273 ± 0.0025 µM
Vmax (other: WT aromatase): 5.32e-07 µmol/min/mg

B2: aromatase W224F mutant (Homo sapiens; W224F) (protein)
chain: B1 chain with W224F
Km (other: W224F mutant): 0.067 ± 0.0051 µM
Vmax (other: W224F mutant): 1.18e-07 µmol/min/mg

B3: aromatase F221Y mutant (Homo sapiens; F221Y) (protein)
chain: B1 chain with F221Y
Km (other: F221Y mutant): 0.0029 ± 0.0003 µM
Vmax (other: F221Y mutant): 1.22e-07 µmol/min/mg

B4: aromatase M374T mutant (Homo sapiens; M374T) (protein)
chain: B1 chain with M374T
Km (other: M374T mutant): 0.0178 ± 0.002 µM
Vmax (other: M374T mutant): 4.5e-08 µmol/min/mg

From publication PMC3253312 (Steroids, 2011)
